Reference: publication PMC12551704, “Metabolic regulation of behavior by the intestinal enzyme FMO-2” (Science Advances, 2025)
One block for each molecule: values may come before it.

Experiments:
[1] = molecular target: T1, FMO-2 (Caenorhabditis elegans, UniProt G5EBJ9); assay: NADPH consumption at […] nm, Michaelis-Menten fit; assay type: biochemical; conditions: 0.5 mM NADPH, excess FAD, 25 mM sodium phosphate pH 8.5, 0.5 mM DETAPAC, 30 C; 0.1-10 mM substrate
T1 construct: purified FMO-2 protein purchased from GenScript
T1 sequence (G5EBJ9 1-529): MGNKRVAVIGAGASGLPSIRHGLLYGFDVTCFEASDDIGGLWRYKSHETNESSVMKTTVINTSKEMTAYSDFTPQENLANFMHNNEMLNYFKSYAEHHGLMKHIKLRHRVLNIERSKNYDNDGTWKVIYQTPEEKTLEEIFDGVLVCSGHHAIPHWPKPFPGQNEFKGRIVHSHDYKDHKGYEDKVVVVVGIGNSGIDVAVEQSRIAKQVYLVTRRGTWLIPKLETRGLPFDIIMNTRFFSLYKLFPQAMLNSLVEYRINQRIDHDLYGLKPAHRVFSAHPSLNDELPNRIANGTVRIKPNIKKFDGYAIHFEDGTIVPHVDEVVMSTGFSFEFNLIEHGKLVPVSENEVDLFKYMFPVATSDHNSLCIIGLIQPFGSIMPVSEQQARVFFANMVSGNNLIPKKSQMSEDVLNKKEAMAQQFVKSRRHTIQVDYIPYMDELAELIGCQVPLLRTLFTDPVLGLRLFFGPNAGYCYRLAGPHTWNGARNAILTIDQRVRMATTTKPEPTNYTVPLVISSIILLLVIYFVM

[2] = substrate: CC(=O)C(=O)O; assay: purified protein; assay type: biochemical, Caenorhabditis elegans; conditions: 0.5 mM NADPH, excess FAD, 25 mM sodium phosphate pH 8.5, 0.5 mM DETAPAC, 30 C

- Km [1]: 880 ± 430 µM
Molecule: N[C@@H](Cc1c[nH]c2ccccc12)C(=O)O [tryptophan]

B1: FMO-2 (Caenorhabditis elegans) (protein)
chain: T1 sequence (G5EBJ9 1-529)
notes: purified FMO-2 protein purchased from GenScript
- Km [2]: 590 ± 290 µM
- kcat [2]: 35 ± 1 s⁻¹
- kcat/Km [2]: 59000 M⁻¹ s⁻¹
